Article doi:10.1101/2022.05.12.491617

What was measured:
[1] = target: Drosophila melanogaster KCC variant B (Drosophila melanogaster); experiment: SEC
[2] = target: Hydra vulgaris KCC (Hydra vulgaris); experiment: SEC-MALLS
[3] = target: Hydra vulgaris KCC (Hydra vulgaris); experiment: SEC

stoichiometry N [1] | stoichiometry N [2] | stoichiometry N [3] | Substance
2 | – | – | Drosophila melanogaster KCC variant B (natural protein)
– | 2 | 2 | Hydra vulgaris KCC (natural protein)
